Assay results as given in patent publication US20160311883A1 (Eli Lilly, published 2016).
Square brackets hold non-standard residues; d marks the D form. Ends that are not written are not given here. Aib = CC(C)(N)C(=O)O

Biological target: human glucagon receptor (hGR) (human, UniProt P47871 26-477)
Assay: cell-based or functional assay

human glucagon receptor (hGR), sequence (P47871 26-477): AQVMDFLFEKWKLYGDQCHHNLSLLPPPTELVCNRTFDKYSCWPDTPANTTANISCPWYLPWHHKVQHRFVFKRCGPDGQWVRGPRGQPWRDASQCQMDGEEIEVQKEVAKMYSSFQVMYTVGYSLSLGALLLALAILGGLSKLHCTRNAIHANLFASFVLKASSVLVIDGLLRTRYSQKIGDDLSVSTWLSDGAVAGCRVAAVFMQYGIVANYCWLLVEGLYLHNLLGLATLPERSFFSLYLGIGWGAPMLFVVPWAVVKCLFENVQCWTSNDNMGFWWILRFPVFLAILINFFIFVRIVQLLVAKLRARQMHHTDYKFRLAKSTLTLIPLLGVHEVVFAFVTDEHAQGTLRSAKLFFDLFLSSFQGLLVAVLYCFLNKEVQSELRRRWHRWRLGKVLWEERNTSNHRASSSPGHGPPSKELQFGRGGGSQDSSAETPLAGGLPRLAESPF

B1: compound of SEQ ID NO: 2 (peptide)
peptide: YSHGTFTSDVSKYLD[Aib]KKAAEFVAWLLEE-OH
modifications: N-terminus assumed
SMILES: CC(C)C[C@H](NC(=O)[C@H](Cc1c[nH]c2ccccc12)NC(=O)[C@H](C)NC(=O)[C@@H](NC(=O)[C@H](Cc1ccccc1)NC(=O)[C@H](CCC(=O)O)NC(=O)[C@H](C)NC(=O)[C@H](C)NC(=O)[C@H](CCCCN)NC(=O)[C@H](CCCCN)NC(=O)C(C)(C)NC(=O)[C@H](CC(=O)O)NC(=O)[C@H](CC(C)C)NC(=O)[C@H](Cc1ccc(O)cc1)NC(=O)[C@H](CCCCN)NC(=O)[C@H](CO)NC(=O)[C@@H](NC(=O)[C@H](CC(=O)O)NC(=O)[C@H](CO)NC(=O)[C@@H](NC(=O)[C@H](Cc1ccccc1)NC(=O)[C@@H](NC(=O)CNC(=O)[C@H](Cc1c[nH]cn1)NC(=O)[C@H](CO)NC(=O)[C@@H](N)Cc1ccc(O)cc1)[C@@H](C)O)[C@@H](C)O)C(C)C)C(C)C)C(=O)N[C@@H](CC(C)C)C(=O)N[C@@H](CCC(=O)O)C(=O)N[C@@H](CCC(=O)O)C(=O)O
hGR stimulated cAMP functional assay, relative EC50: 0.0658 ηM
